Test results as given in IntAct's records for PubMed 21435037.

B1: Inositol phosphate phosphatase SopB (Salmonella typhimurium), O30916 (parent)
chain: MQIQSFYHSASLKTQEAFKSLQKTLYNGMQILSGQGKAPAKAPDARPEIIVLREPGATWGNYLQHQKASNHSLHNLYNLQRDLLTVAATVLGKQDPVLTSMANQMELAKVKADRPATKQEEAAAKALKKNLIELIAARTQQQDGLPAKEAHRFAAVAFRDAQVKQLNNQPWQTIKNTLTHNGHHYTNTQLPAAEMKIGAKDIFPSAYEGKGVCSWDTKNIHHANNLWMSTVSVHEDGKDKTLFCGIRHGVLSPYHEKDPLLRHVGAENKAKEVLTAALFSKPELLNKALAGEAVSLKLVSVGLLTASNIFGKEGTMVEDQMRAWQSLTQPGKMIHLKIRNKDGDLQTVKIKPDVAAFNVGVNELALKLGFGLKASDSYNAEALHQLLGNDLRPEARPGGWVGEWLAQYPDNYEVVNTLARQIKDIWKNNQHHKDGGEPYKLAQRLAMLAHEIDAVPAWNCKSGKDRTGMMDSEIKREIISLHQTHMLSAPGSLPDSGGQKIFQKVLLNSGNLEIQKQNTGGAGNKVMKNLSPEVLNLSYQKRVGDENIWQSVKGISSLITS

Variants of: B1
Conditions: with cdc42_human CDC42, P60953
Chain of cdc42_human CDC42, P60953 (P60953 whole entry, looked up): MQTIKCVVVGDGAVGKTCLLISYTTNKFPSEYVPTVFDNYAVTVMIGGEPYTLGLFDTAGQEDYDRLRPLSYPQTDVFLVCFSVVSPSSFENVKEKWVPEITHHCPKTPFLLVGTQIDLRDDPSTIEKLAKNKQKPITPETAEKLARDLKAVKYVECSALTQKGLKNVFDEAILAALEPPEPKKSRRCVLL
In the case of L76P, the “effect of a mutation on the interaction” value is reported as “decreasing interaction”. In the case of L63P, the “effect of a mutation on the interaction” value is reported as “decreasing interaction”. For L84P, the “effect of a mutation on the interaction” value was “decreasing interaction”. With L73P the “effect of a mutation on the interaction” value was “decreasing interaction”.

Variants of: B1
Conditions: with cdc42_human CDC42, P60953
Remark: another data set of the same source
With L73P;R466A the “effect of a mutation on the interaction” value was “decreasing interaction”. With L84P;R466A the “effect of a mutation on the interaction” value was “decreasing interaction”. For L76P;R466A, the “effect of a mutation on the interaction” value was “decreasing interaction”. With L52P the “effect of a mutation on the interaction” value was “decreasing interaction”. For L63P;R466A, the “effect of a mutation on the interaction” value was “decreasing interaction”.
